According to the supplement of paper PMC12042874:
± gives the uncertainty stated by the source.

test: amyloid nucleation score (Sup35N fusion, yeast selection) (log enrichment); library NNK2; higher = more nucleation; inactive = no reads after selection
Summary of the method: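 The nucleation score equals the log enrichment of output over input reads from DiMSum, centred on the mode score of non-aggregating sequences. It was computed only for sequences with 100 or more input reads. The reads came from Illumina sequencing of plasmid inserts from psi-negative yeast expressing Sup35N fused to peptides of 20 random codons, induced with 100 μM copper sulfate for 24 hours and grown 7 days at 30°C without adenine and uracil.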

| Substance | amyloid nucleation score |
| --- | --- |
| LCGMLYAAAGHWFSVMPPGD | 0.997 ± 0.32 |
| KCVGYW | 0.811 ± 0.57 |
| AGSQVVVMVIGVSTWAVVDG | 3.01 ± 0.14 |
| YDLDEGYSLMFVPQEQICAE | inactive |
| RSLVDLMRGFDIV | 5.62 ± 0.062 |
| VLAHNSGWNGTKETYCMSNG | -0.436 ± 0.54 |
| TRAWITWAKVWRSQMNRGKA | 0.699 ± 0.54 |
| TDLYTCDVLRVLVCAH | -0.011 ± 0.45 |
| AAFRSTFDCTTVVLRSPSVS | -0.345 ± 0.33 |
| MSICANLVLWWLDL | -0.607 ± 0.63 |
| LQMSGTSR | 0.265 ± 1.1 |
| DTVISCLGVG | -0.087 ± 1 |
| LCMCLRNMLSPAMVVTSNPP | 0.737 ± 0.2 |
| PSRLRYITICRVPGAMSDVN | 0.268 ± 0.27 |
| MAILYVVGWFVP | 0.148 ± 0.28 |
| REEGFS | -1.29 ± 0.54 |
| ICVMSQCTQMYRMKICGSLQ | 0.568 ± 0.29 |
| AWFCREKGNGFFFM | inactive |
| GHYKISKAFTVTST | 2.58 ± 0.095 |
| INWCSDMHNCVCLTIGQWLV | 3.36 ± 0.16 |
| YILSWARFIEYDYLTPRVYS | 0.356 ± 0.57 |
| SDHMYMIFMTMFVVVSHWVI | -0.795 ± 0.76 |
| RTPPISMGKHNFVYVSSVCG | -1.1 ± 0.36 |
| ITFMVLM | 6.6 ± 0.074 |
| CGRSRKRCIRASRSGSLNMC | 0.293 ± 0.53 |
| FSSEGLRIRKIRQGISISLC | -1.21 ± 1.1 |

| Substance | amyloid nucleation score |
| --- | --- |
| GSRYN | 0.634 ± 0.54 |
| GLSAIPFTDG | -0.722 ± 0.45 |
| EFLYKLRLSLSMGCGHEELG | 4.72 ± 0.061 |
| FSMYSSSVWLDW | inactive |
| SYARIYFWDEILENPSPVWE | -0.378 ± 1 |
| NSLVLFFSVGVLRL | 1.37 ± 0.21 |
| MHQVFIKEYAEYYRVCERRM | 2.05 ± 0.064 |
| SHQLICFSWRLDFYHRGLLQ | 2.5 ± 0.13 |
| LMLNWCTLGLVHC | 0.004 ± 0.61 |
| RFLLQS | -0.39 ± 0.61 |
| DFPQCKNTETLL | 0.279 ± 0.4 |
| QGHISHTGLIPMLGGSL | 3.23 ± 0.15 |
| YYEIIWYTFQEKLSGCSSCS | -2.02 ± 0.75 |
| LATKTLSMSLESICRNTVAF | inactive |
| LVGRRWVFTDCKGFRASVNF | inactive |
| SDHLCRYV | -0.095 ± 1.1 |
| DDIIISPVPDHE | inactive |
| RNLGSCY | -0.08 ± 0.46 |
| IPTACEHKRSPRVQPQRNSA | 0.163 ± 0.4 |
| GGERYHPYYDAA | 0.268 ± 0.54 |
| VNRDRAQLWVACITCRCNFR | 8.986 ± 0.049 |
| FICYNTRRVVCIYLRL | 0.456 ± 0.74 |
| ESILKHSMPSYGFFLF | inactive |
| FSFYECLRGFFSNVDARCQV | 1.51 ± 0.11 |
| CLWVRGSCC | -1.04 ± 0.55 |
| STDWNLRPGPSLRWLLSPAT | 0.92 ± 0.45 |

| Substance | amyloid nucleation score |
| --- | --- |
| AFYIRLIAREP | inactive |
| VETYT | 0.022 ± 0.65 |
| NYEGGCGVNGVMSVPAVRNP | 0.082 ± 1 |
| GYLVYFLCINRLACCSYLAT | 7.981 ± 0.065 |
| MLGVSQCVVMVVAGWA | 1.4 ± 0.16 |
| LVTSCLQVEW | 0.284 ± 0.28 |
| YCINGLGIGTELCVFTTKWM | -0.479 ± 0.3 |
| VYVFDIVRLG | 0.465 ± 0.8 |
| YDLCGTALTVLGTVIY | 1.15 ± 0.27 |
| VCDVLYKFGYSKN | 4.89 ± 0.058 |
| VRAYLQYR | 0.094 ± 0.74 |
| GRRMIRAERTIRLIIHVRSL | 0.767 ± 0.6 |
| HGRRQGFAVTVGN | 0.355 ± 0.45 |
| FNTILVRLPA | 0.455 ± 0.55 |
| CIFFPRGSNFFLFQMCGLSF | 3.83 ± 0.097 |
| SHRCELKWTGLVMNYKVVHC | 1.71 ± 0.25 |
| ISDGCCGMLNAYCFTLVNCK | 4.18 ± 0.062 |
| SLPPLMWGAMMRRRRRGSST | 5.717 ± 0.056 |
| FSPHHEPTSRG | 0.426 ± 0.45 |
| SLSRCALL | -0.789 ± 0.39 |
| IYSEWLSLVYSLGAPVTLNS | -0.015 ± 0.46 |
| CHGNGQLK | inactive |
| FNTYVVNFSRRGDIVMAKR | 6.59 ± 0.085 |
| SIRLYSCSMVLTSSSVNCYQ | 1.86 ± 0.17 |
| MTLIAVDSLSYLWANDNRRG | 0.353 ± 0.36 |
| YYSSLTYCMLQWYSLFWWGH | 0.658 ± 0.51 |

| Substance | amyloid nucleation score |
| --- | --- |
| EMYRCGWCLWMHNRLTATVR | 1.86 ± 0.28 |
| FPGWGIDPTYKVKVRWMNRA | 0.566 ± 0.33 |
| DSRCIDTVFNWYEHTSSRYR | -0.287 ± 0.55 |
| WYKKATNSVLANVGQDFVVK | -0.41 ± 0.36 |
| HIIASCTV | 1.18 ± 0.38 |
| SVSQPYSKSVGLRGRGKQGQ | 0.737 ± 0.46 |
| VRMWRGE | 0.083 ± 0.49 |
| QIFLIKIGAFVLLLTVQ | -1.34 ± 0.54 |
| DQEALGRLWYLFAHGSLVTR | 0.847 ± 0.44 |
| TILGSLHFNFVKCHSKCSYF | 7.238 ± 0.061 |
| CFSNFVG | 0.746 ± 0.31 |
| DRSRLGVGGVDVLWFLHSSK | 5.328 ± 0.046 |
| KYRYRLVQR | -0.656 ± 1.1 |
| GTTWRRINECCSRANKMAPV | 0.029 ± 0.35 |
| AMDMI | 0.833 ± 0.8 |
| GMMLPVFMIFIRRACINYSL | inactive |
| RLSCDTVFMMSFGIICSFFN | 4.418 ± 0.039 |
| LSPRSGNRTP | -0.436 ± 0.41 |
| KSPPFMGSAERVSRRNGRGL | -0.417 ± 0.36 |
| DWGGVLCATVG | inactive |
| TWDVNVLHVYLSMSSTTLHF | -0.46 ± 0.45 |
| SYWIADTNRSGNRRLSCGRC | 0.266 ± 1 |
| VRLLGYIWKLLPHVVNQKV | 0.31 ± 0.46 |
| CTCQVFPHNALCQGSWVLPV | 1.07 ± 0.27 |
| CSVWRDLVAICLRD | inactive |
| YYGALWRYAGMSG | -0.472 ± 0.3 |

| Substance | amyloid nucleation score |
| --- | --- |
| TFLQPTLEVSLL | -0.612 ± 0.48 |
| LASYLRFSISSVIFNTRAIL | -0.315 ± 0.54 |
| LYSRSTSILDERWSTVIILL | 2.5 ± 0.23 |
| AVLLTMWYLNICTHIWVQTL | 0.139 ± 0.33 |
| SVRKGVFNSSMNGVCTTVQS | -0.28 ± 0.74 |
| GGFRWSIQEHWYCTNAYSTD | 0.734 ± 0.81 |
| VDIWVWVG | 0.456 ± 0.6 |
| GLTLFVRSLALRNYVCDWSP | 0.149 ± 0.36 |
| ECGVLFV | 0.827 ± 0.6 |
| EKGVGL | -0.449 ± 0.5 |
| IFYYG | -0.945 ± 0.36 |
| RFSGASNLVESPIKWIVGAH | 4.96 ± 0.06 |
| IDDARRYCRQNRFTVSMGNC | -0.112 ± 0.54 |
| FCISFYTNIPSDS | -0.836 ± 0.55 |
| TLHLWGSK | 1.38 ± 0.42 |
| QLNDWSYMVKFSAV | -0.466 ± 0.64 |
| MYFNSRSNYEYAYCWLFIVF | 0.492 ± 0.44 |
| DESSSRDETCGVFTHLVCVV | -0.249 ± 0.28 |
| ARWWMSSKRR | 0.026 ± 0.65 |
| VLSNLIFYLSPFCIMHLMR | 3.27 ± 0.13 |
| KSTLANHFTVLIGDTADLHG | inactive |
| VNIDGRDRDNFVNGRSIMLR | inactive |
| LGNWCGYWYFHHISSYGLMR | -0.419 ± 0.5 |
| DFMRELYFMGSRPFEMLYMY | 0.102 ± 0.77 |
| KFRCHGR | 0.785 ± 0.62 |
